IntAct's records for PubMed 31515488

B1: A-kinase anchor protein 17A (Homo sapiens), Q02040 (parent)
chain: MAAATIVHDTSEAVELCPAYGLYLKPITKMTISVALPQLKQPGKSISNWEVMERLKGMVQNHQFSTLRISKSTMDFIRFEGEVENKSLVKSFLACLDGKTIKLSGFSDILKVRAAEFKIDFPTRHDWDSFFRDAKDMNETLPGERPDTIHLEGLPCKWFALKESGSEKPSEDVLVKVFEKFGEIRNVDIPMLDPYREEMTGRNFHTFSFGGHLNFEAYVQYREYMGFIQAMSALRGMKLMYKGEDGKAVACNIKVSFDSTKHLSDASIKKRQLERQKLQELEQQREEQKRREKEAEERQRAEERKQKELEELERERKREEKLRKREQKQRDRELRRNQKKLEKLQAEEQKQLQEKIKLEERKLLLAQRNLQSIRLIAELLSRAKAVKLREQEQKEEKLRLQQQEERRRLQEAELRRVEEEKERALGLQRKERELRERLLSILLSKKPDDSHTHDELGVAHADLLQPVLDILQTVSSGCVSATTLHPLGGQPPAGAPKESPAHPEADGAPKSVNGSVAEEAPCKEVQSSCRVVPEDGSPEKRCPGGVLSCIPDNNQQPKGIPACEQNVSRKDTRSEQDKCNREPSKGRGRATGDGLADRHKRERSRARRASSREDGRPRKERRPHKKHAYKDDSPRRRSTSPDHTRSRRSHSKDRHRRERSRERRGSASRKHSRHRRRSERSRSRSPSRHRSTWNR
B2: Protein NOXP20 (Homo sapiens), Q8IWE2 (parent)
chain: MSDDAGDTLATGDKAEVTEMPNSDSLPEDAEVHCDSAAVSHEPTPADPRGEGHENAAVQGAGAAAIGPPVQPQDANALEPPLNGDVTEDTLAECIDSVSLEAEPRSEIPLQEQNYLAVDSPPSGGGWAGWGSWGKSLLSSASATVGHGLTAVKEKAGATLRIHGVNSGSSEGAQPNTENGVPEITDAATDQGPAESPPTSPSSASRGMLSAITNVVQNTGKSVLTGGLDALEFIGKKTMNVLAESDPGFKRTKTLMERTVSLSQMLREAKEKEKQRLAQQLTMERTAHYGMLFDEYQGLSHLEALEILSNESESKVQSFLASLDGEKLELLKNDLISIKDIFAAKELENEENQEEQGLEEKGEEFARMLTELLFELHVAATPDKLNKAMKRAHDWVEEDQTVVSVDVAKVSEEETKKEEKEEKSQDPQEDKKEEKKTKTIEEVYMSSIESLAEVTARCIEQLHKVAELILHGQEEEKPAQDQAKVLIKLTTAMCNEVASLSKKFTNSLTTVGSNKKAEVLNPMISSVLLEGCNSTTYIQDAFQLLLPVLQVSHIQTSCLKAQP
B3: Synaptotagmin-like protein 4 (Homo sapiens), Q96C24 (parent)
chain: MSELLDLSFLSEEEKDLILSVLQRDEEVRKADEKRIRRLKNELLEIKRKGAKRGSQHYSDRTCARCQESLGRLSPKTNTCRGCNHLVCRDCRIQESNGTWRCKVCAKEIELKKATGDWFYDQKVNRFAYRTGSEIIRMSLRHKPAVSKRETVGQSLLHQTQMGDIWPGRKIIQERQKEPSVLFEVPKLKSGKSALEAESESLDSFTADSDSTSRRDSLDKSGLFPEWKKMSAPKSQVEKETQPGGQNVVFVDEGEMIFKKNTRKILRPSEYTKSVIDLRPEDVVHESGSLGDRSKSVPGLNVDMEEEEEEEDIDHLVKLHRQKLARSSMQSGSSMSTIGSMMSIYSEAGDFGNIFVTGRIAFSLKYEQQTQSLVVHVKECHQLAYADEAKKRSNPYVKTYLLPDKSRQGKRKTSIKRDTINPLYDETLRYEIPESLLAQRTLQFSVWHHGRFGRNTFLGEAEIQMDSWKLDKKLDHCLPLHGKISAESPTGLPSHKGELVVSLKYIPASKTPVGGDRKKSKGGEGGELQVWIKEAKNLTAAKAGGTSDSFVKGYLLPMRNKASKRKTPVMKKTLNPHYNHTFVYNGVRLEDLQHMCLELTVWDREPLASNDFLGGVRLGVGTGISNGEVVDWMDSTGEEVSLWQKMRQYPGSWAEGTLQLRSSMAKQKLGL
B4: ATP synthase mitochondrial F1 complex assembly factor 2 (Homo sapiens), Q8N5M1 (parent)
chain: MWRSCLRLRDGGRRLLNRPAGGPSASMSPGPTIPSPARAYAPPTERKRFYQNVSITQGEGGFEINLDHRKLKTPQAKLFTVPSEALAIAVATEWDSQQDTIKYYTMHLTTLCNTSLDNPTQRNKDQLIRAAVKFLDTDTICYRVEEPETLVELQRNEWDPIIEWAEKRYGVEISSSTSIMGPSIPAKTREVLVSHLASYNTWALQGIEFVAAQLKSMVLTLGLIDLRLTVEQAVLLSRLEEEYQIQKWGNIEWAHDYELQELRARTAAGTLFIHLCSESTTVKHKLLKE
partner: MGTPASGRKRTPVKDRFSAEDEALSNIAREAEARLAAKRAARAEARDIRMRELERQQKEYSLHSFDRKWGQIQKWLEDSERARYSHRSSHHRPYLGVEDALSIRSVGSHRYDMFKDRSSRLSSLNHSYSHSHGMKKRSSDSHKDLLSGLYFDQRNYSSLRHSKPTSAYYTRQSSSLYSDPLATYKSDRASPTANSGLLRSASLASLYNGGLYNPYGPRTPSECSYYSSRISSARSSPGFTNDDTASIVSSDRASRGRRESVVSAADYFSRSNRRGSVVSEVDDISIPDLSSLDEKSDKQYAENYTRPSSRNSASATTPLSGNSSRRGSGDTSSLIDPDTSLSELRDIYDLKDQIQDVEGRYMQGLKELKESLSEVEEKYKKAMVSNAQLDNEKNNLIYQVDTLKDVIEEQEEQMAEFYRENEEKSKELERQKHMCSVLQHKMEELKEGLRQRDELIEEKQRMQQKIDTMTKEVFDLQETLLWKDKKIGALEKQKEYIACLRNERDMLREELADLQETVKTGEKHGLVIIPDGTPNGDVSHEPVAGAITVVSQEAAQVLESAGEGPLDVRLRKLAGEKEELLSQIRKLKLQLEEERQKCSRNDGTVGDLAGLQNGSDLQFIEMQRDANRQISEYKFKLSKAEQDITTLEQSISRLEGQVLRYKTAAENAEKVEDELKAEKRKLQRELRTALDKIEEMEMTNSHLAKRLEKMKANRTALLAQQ
B5: Rho guanine nucleotide exchange factor 3 (Homo sapiens), Q9NR81 (parent)
chain: MVAKDYPFYLTVKRANCSLELPPASGPAKDAEEPSNKRVKPLSRVTSLANLIPPVKATPLKRFSQTLQRSISFRSESRPDILAPRPWSRNAAPSSTKRRDSKLWSETFDVCVNQMLTSKEIKRQEAIFELSQGEEDLIEDLKLAKKAYHDPMLKLSIMTEQELNQIFGTLDSLIPLHEELLSQLRDVRKPDGSTEHVGPILVGWLPCLSSYDSYCSNQVAAKALLDHKKQDHRVQDFLQRCLESPFSRKLDLWNFLDIPRSRLVKYPLLLREILRHTPNDNPDQQHLEEAINIIQGIVAEINTKTGESECRYYKERLLYLEEGQKDSLIDSSRVLCCHGELKNNRGVKLHVFLFQEVLVITRAVTHNEQLCYQLYRQPIPVKDLLLEDLQDGEVRLGGSLRGAFSNNERIKNFFRVSFKNGSQSQTHSLQANDTFNKQQWLNCIRQAKETVLCAAGQAGVLDSEGSFLNPTTGSRELQGETKLEQMDQSDSESDCSMDTSEVSLDCERMEQTDSSCGNSRHGESNV
B6: Cyclin-dependent kinase 4 (Homo sapiens), P11802 (parent)
chain: MATSRYEPVAEIGVGAYGTVYKARDPHSGHFVALKSVRVPNGGGGGGGLPISTVREVALLRRLEAFEHPNVVRLMDVCATSRTDREIKVTLVFEHVDQDLRTYLDKAPPPGLPAETIKDLMRQFLRGLDFLHANCIVHRDLKPENILVTSGGTVKLADFGLARIYSYQMALTPVVVTLWYRAPEVLLQSTYATPVDMWSVGCIFAEMFRRKPLFCGNSEADQLGKIFDLIGLPPEDDWPRDVSLPRGAFPPRGPRPVQSVVPEMEESGAQLLLEMLTFNPHKRISAFRALQHSYLHKDEGNPE

Variants of: B1
Settings: with cep70_human CEP70, Q8NHQ1
Target sequence in this assay (Q8NHQ1 whole entry): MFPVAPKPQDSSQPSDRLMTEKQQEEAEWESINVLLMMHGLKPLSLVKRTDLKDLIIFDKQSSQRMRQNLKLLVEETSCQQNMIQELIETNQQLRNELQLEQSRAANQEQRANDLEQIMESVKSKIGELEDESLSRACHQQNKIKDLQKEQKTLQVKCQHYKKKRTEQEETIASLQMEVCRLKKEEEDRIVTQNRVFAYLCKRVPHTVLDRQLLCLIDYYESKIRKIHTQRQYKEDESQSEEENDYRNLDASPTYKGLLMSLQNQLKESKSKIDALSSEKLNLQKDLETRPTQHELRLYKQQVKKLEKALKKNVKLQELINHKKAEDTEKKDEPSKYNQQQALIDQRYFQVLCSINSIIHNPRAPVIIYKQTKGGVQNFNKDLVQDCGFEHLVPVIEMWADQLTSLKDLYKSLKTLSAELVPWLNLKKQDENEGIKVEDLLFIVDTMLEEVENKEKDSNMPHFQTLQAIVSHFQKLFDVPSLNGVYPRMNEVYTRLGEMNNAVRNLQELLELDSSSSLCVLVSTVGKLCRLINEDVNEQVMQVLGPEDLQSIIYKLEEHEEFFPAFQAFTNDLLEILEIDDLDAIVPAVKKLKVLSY

Row | effect of a mutation on the interaction | Variant
1 | with no effect | R298K
2 | with no effect | R675C

Variants of: B2
Settings: with rab2a_human RAB2A

Row | effect of a mutation on the interaction | Variant
3 | with no effect | S40L

Variants of: B3
Settings: with hm20a_human HMG20A

Row | effect of a mutation on the interaction | Variant
4 | with no effect | D252G
5 | with no effect | M646I

Variants of: B3
Settings: with cep70_human CEP70, Q8NHQ1
Target sequence in this assay (Q8NHQ1 whole entry): as above

Row | effect of a mutation on the interaction | Variant
6 | with no effect | D252G
7 | disrupting interaction strength | M646I

Variants of: B4
Settings: with lrrf2_human LRRFIP2, Q9Y608

Row | effect of a mutation on the interaction | Variant
8 | with no effect | E241G

Variants of: B5
Settings: with tri23_human TRIM23, P36406
Chain of tri23_human TRIM23, P36406 (P36406 whole entry): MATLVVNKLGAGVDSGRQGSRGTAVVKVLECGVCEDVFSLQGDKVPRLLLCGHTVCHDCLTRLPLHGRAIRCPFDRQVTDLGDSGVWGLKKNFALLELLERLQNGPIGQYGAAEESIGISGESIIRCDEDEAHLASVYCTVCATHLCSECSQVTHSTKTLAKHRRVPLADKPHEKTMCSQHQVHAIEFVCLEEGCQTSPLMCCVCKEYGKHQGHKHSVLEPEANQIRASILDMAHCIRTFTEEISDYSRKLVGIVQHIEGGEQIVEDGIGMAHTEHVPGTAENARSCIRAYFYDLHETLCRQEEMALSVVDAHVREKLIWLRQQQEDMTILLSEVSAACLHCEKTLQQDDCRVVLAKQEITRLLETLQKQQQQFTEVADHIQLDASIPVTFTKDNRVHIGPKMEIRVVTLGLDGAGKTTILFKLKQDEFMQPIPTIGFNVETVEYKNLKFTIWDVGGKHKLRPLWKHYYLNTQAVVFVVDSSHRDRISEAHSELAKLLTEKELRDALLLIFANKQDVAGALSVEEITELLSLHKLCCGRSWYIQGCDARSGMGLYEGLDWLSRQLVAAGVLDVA

Row | effect of a mutation on the interaction | Variant
9 | with no effect | N432S

Variants of: B6
Settings: with ccnd1_human CCND1, P24385
Chain of ccnd1_human CCND1, P24385 (P24385 whole entry): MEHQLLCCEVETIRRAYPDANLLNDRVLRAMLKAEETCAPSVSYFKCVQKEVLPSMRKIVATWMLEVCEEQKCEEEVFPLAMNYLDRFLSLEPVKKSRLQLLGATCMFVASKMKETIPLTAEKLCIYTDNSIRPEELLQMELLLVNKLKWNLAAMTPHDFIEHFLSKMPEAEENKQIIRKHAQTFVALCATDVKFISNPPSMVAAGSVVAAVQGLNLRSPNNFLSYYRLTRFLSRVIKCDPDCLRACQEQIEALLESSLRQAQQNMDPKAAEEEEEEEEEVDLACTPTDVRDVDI

Row | effect of a mutation on the interaction | Variant
10 | with no effect | N41S

Variants of: B6
Settings: with ccnd1_human CCND1, P24385
Remark: another data set of the same source

Row | effect of a mutation on the interaction | Variant
11 | with no effect | V174G

Variants of: B6
Settings: with ccnd2_human CCND2, P30279
Chain of ccnd2_human CCND2, P30279 (P30279 whole entry): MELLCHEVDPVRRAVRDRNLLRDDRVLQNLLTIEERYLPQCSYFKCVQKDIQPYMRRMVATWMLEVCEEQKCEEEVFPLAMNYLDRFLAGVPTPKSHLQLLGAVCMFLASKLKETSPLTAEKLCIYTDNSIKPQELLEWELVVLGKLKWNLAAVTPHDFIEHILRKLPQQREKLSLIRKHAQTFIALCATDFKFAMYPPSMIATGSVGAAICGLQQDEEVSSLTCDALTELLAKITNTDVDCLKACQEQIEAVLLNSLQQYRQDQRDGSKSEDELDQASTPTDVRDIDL

Row | effect of a mutation on the interaction | Variant
12 | disrupting interaction strength | V174G

Variants of: B6
Settings: with cdn2c_human CDKN2C

Row | effect of a mutation on the interaction | Variant
13 | with no effect | V174G

Variants of: B6
Settings: with ccnd3_human CCND3, P30281
Chain of ccnd3_human CCND3, P30281 (P30281 whole entry): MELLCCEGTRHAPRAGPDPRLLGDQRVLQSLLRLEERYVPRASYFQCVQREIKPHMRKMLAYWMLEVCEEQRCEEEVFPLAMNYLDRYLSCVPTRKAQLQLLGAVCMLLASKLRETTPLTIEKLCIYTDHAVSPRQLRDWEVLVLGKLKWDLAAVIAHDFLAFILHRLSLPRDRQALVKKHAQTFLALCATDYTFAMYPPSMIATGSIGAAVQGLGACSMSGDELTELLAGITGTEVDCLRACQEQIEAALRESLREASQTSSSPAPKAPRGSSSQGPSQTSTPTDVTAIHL

Row | effect of a mutation on the interaction | Variant
14 | with no effect | V174G
